Source: paper PMC5434896, “Inhibition of PDE5A1 guanosine cyclic monophosphate (cGMP) hydrolysing activity by sildenafil analogues that inhibit cellular cGMP efflux” (The Journal of Pharmacy and Pharmacology, 2017)

System: [H][C@@]12COP(=O)(O)O[C@@]1([H])[C@@H](O)[C@H](n1cnc3c(=O)[nH]c(N)nc31)O2
Experiment: [3H]-cGMP hydrolysis, snake venom nucleotidase, anion-exchange separation
Type: biochemical, Homo sapiens
Settings: [3H]-cGMP mixed with unlabelled cGMP […], […] MgCl2, pH […]

PDE5A1 (Homo sapiens) was tested, and the Km was 1.7 ± 0.4 µM.
